Series [1] has as its target T1, Escherichia coli inclusion body-associated protein B (E. coli, UniProt P0C058 1-142).
T1 sequence: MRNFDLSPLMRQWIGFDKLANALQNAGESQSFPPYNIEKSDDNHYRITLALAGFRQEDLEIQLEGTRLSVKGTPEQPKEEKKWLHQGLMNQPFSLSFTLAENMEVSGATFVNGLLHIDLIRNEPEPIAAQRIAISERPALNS
Briefly: sucrose density gradient centrifugation.

Series [2] concerns the molecule itself. Briefly: sucrose density gradient centrifugation.

B1: Escherichia coli inclusion body-associated protein A, wild type (natural protein)
chain: MRNFDLSPLYRSAIGFDRLFNHLENNQSQSNGGYPPYNVELVDENHYRIAIAVAGFAESELEITAQDNLLVVKGAHADEQKERTYLYQGIAERNFERKFQLAENIHVRGANLVNGLLYIDLERVIPEAKKPRRIEIN
For the molecule B1, the binding result in series [1] and in series [2] was “binds” throughout.

B2: Escherichia coli IbpA R93A mutant (natural protein)
chain: MRNFDLSPLYRSAIGFDRLFNHLENNQSQSNGGYPPYNVELVDENHYRIAIAVAGFAESELEITAQDNLLVVKGAHADEQKERTYLYQGIAEANFERKFQLAENIHVRGANLVNGLLYIDLERVIPEAKKPRRIEIN
B2: the binding result in series [1] and in series [2] was “binds” in each case.

Values taken from publication doi:10.1101/2023.04.26.538363 (bioRxiv, 2023).
